Variants at the floor of the assay were thinned out.
B1: TPR 5TU (parent)
chain: GGAUCUUCUCGAUCUAACAAAAAAGACAAAUCUGCCACAAAGCUUGAGAGCAUCUUCGGAUGCAGAGGCGGCAGCCUUCGGUGGCGCGAUAGCGCCAACGUUCUCAACUAUGACACGCAAAACGCGUGCUCCGUUGAAUGGAGUUUAUCAUG

Variants of: B1
Experiment: polymerase ribozyme fitness, log enrichment relative to wild type (log ratio); higher = more active; in vitro selection for triplet polymerase activity
How it was run: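 Only genotypes with ≥10 input reads and ≥1 read per output were kept after Illumina sequencing of input and output libraries. These libraries were PCR-built, transcribed mutants of each subunit of a heterodimeric triplet polymerase ribozyme, each put through one triplicate in vitro selection round with frozen incubation at −7 °C, gel excision of extended constructs, streptavidin-bead capture and RT-PCR. Fitness is a logarithmic ratio of genotype enrichment to wild-type enrichment, from inverse-variance-weighted replicate averages, with the logarithm in base 2.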

| Variant | polymerase ribozyme fitness (log ratio) |
| --- | --- |
| G59C A60U G68A C75A C108A | -4.15 |
| G59C C75U A98U | -0.152 |
| G59C U78C C85A U144A A150U | ≤ -4.2 |
| U61A U78G C95U A107C U148G A150U | ≤ -4.2 |
| C57U C103G | -1.7 |
| G58A C85U A106G | -0.0661 |
| G58C A106C | 0.355 |
| A60G A89C U104G C108G | ≤ -4.2 |
| G59C C96G C118G A142U | -3.61 |
| A60G C69A A91U A97U U134C | ≤ -4.2 |
| A60G G94U | -0.467 |
| C57U C76G A115C A150G | ≤ -4.2 |
| G59C C75U | -1.52 |
| A60G G67U G86A | -4.13 |
| A60G G94A C103A G140C | ≤ -4.2 |
| A60G C95A U101C | 0.139 |
| G59C G68C C118G | -4.15 |
| G59C G65C C76G U145G C149A | ≤ -4.2 |
| G59C U127A | -3.77 |
| G58C A122U A142G G143A | -4.05 |
| G59A A122G U148C | -3 |

| Variant | polymerase ribozyme fitness (log ratio) |
| --- | --- |
| G59A U127A | -3.81 |
| G58A G71U | -0.673 |
| A60U G141U | 0.392 |
| C57U G86A A120G G141C | -2.82 |
| G59A C99G | -1.14 |
| G59C G92U C105A C125A C149U | ≤ -4.2 |
| A60G C93U U104G G143C | -3.09 |
| A60G G67A U78G C96G A120U G140U A147G | ≤ -4.2 |
| A60U C131G | -3.54 |
| G58U G126U A150C | -4.03 |
| C57U G86A A98U | -1.55 |
| U61A C85A C96A A121G | ≤ -4.2 |
| G59U C95U | -2.6 |
| G59A C85U C149G | -3.59 |
| G59C G124A U151C | -3.78 |
| A60G G67U C93G U102C | ≤ -4.2 |
| A60G G68A U139A | ≤ -4.2 |
| G58C C87G | ≤ -4.2 |
| G59U A107U U127A | ≤ -4.2 |
| A60U G67A A91G A137U | ≤ -4.2 |
| A60C G92U A97G | -2.29 |

| Variant | polymerase ribozyme fitness (log ratio) |
| --- | --- |
| A60U G86A A150C | ≤ -4.2 |
| U61A G117A | -0.98 |
| A60G A66C G94U C108U C125U U139C | -4 |
| C57U G84U G126C | -0.969 |
| G59A A106G U134A | -2.03 |
| G59A C95U C103G | -2.47 |
| G59A A122U | 0.148 |
| G58C A64C C69G C85U A110U U134G | ≤ -4.2 |
| U61A C96A | -1.36 |
| U61A C96U | -1.32 |
| G58A C87A A91C C99U | ≤ -4.2 |
| G59A C85A A115G C123U | -2.65 |
| C57U G117C A122G | 0.204 |
| G59C C93G A97U U127C A137G | ≤ -4.2 |
| G58C C96U | -1.02 |
| G58C U82A G143C | -1.86 |
| C57U U102G | -1.87 |
| G59C C103U | 0.229 |
| G58C A73G U101C C125G | -0.932 |
| G59A A137U G141C | -3.95 |
| A60U C96G | -3.34 |

| Variant | polymerase ribozyme fitness (log ratio) |
| --- | --- |
| G58C A119C | -0.0646 |
| G58U G94U G140U | -3.9 |
| C57U A60C G86A C105G | ≤ -4.2 |
| C57U G68U | -3.89 |
| G58U A89G | -0.659 |
| A60G C114U | -1.83 |
| G59A G83U G84A | -1.23 |
| G59U G68A C96U | ≤ -4.2 |
| G59C U109G | -0.84 |
| G58U C105U A106G C149U | 0.147 |
| G59A G92C | -2.78 |
| G59U A66G A91G G100U U134A G143A A147G A150C | ≤ -4.2 |
| G58C G94A | -0.64 |
| C57U C85U U102A C114A | -3.9 |
| A60C G84U | -2.22 |
| C57U U101A | 0.41 |
| C57U U101G | -0.262 |
| G58A C85G A115G | -2.89 |
| G59A A60C C79G G81A U101G C132A U146A | ≤ -4.2 |
| G58C G68A | -3.97 |

Reference: the RNAGym collection of RNA variant scans (doi:10.1073/pnas.2313332121)
